The source of these data is patent US20210054355A1 (NEW YORK UNIVERSITY, published 2021).

The target in assay [1] is T1, FGFR1c^ecto (human FGFR1c ligand-binding domain, D2, D3 and D2-D3 linker) (human, UniProt P11362 142-365).
T1 sequence: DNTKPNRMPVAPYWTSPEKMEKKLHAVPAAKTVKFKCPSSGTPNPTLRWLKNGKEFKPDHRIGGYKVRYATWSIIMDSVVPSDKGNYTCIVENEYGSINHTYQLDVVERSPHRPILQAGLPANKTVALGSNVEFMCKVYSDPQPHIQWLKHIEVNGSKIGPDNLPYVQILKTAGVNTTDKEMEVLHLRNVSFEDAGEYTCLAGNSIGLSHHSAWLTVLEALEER
Put plainly: crystal structure of the ternary complex, 3.0 Å. The procedure: To prepare the FGF23-FGFR1c^ecto-αKlotho^ecto complex, its purified components were mixed at a molar ratio of 1.2:1.2:1 and spin-concentrated using an Amicon Ultra-15 concentrator (#UFC901024, Merck Millipore, Germany). The concentrated sample was applied to a Superdex 200 column (GE Healthcare, USA) and eluted isocratically in 25 mM HEPES pH 7.5 buffer containing 500 mM NaCl and 100 mM (NH₄)₂SO₄. Column peak fractions were analyzed by SDS-PAGE and peak fractions containing the ternary complex were concentrated to 7 mg/ml. Concentrated ternary complex was screened for crystallization by sitting drop vapor diffusion. A range of commercially available crystallization screen kits was used: Protein Complex Suite (#130715), Classics Suite (#130701), Classics II Suite (#130723), and Classics Lite Suite (#130702) from Qiagen, Germany; Crystal Screen (#HR2-110), Crystal Screen 2 (#HR2-112), Crystal Screen Lite (#HR2-128), PEG/Ion Screen (#HR2-126), and PEGRx1 (#HR2-082) from Hampton Research, USA; and PEG Grid Screening Kit (#36436) and Crystallization Cryo Kit (#75403) from Sigma-Aldrich, USA. Drops consisting of 100 nl reservoir solution and 100 nl protein complex solution were equilibrated against 100 μl well volume set up in 96-well plates (Fisher Scientific, USA) using a Mosquito crystallization robot (TTP Labtech, U.K.). […]

In assay [2] the target is T2, Soluble human α-Klotho ectodomain (αKlotho^ecto) (human, UniProt Q9UEF7 34-981).
T2 construct: also called wild-type αKlotho^ecto; soluble αKlotho
T2 sequence: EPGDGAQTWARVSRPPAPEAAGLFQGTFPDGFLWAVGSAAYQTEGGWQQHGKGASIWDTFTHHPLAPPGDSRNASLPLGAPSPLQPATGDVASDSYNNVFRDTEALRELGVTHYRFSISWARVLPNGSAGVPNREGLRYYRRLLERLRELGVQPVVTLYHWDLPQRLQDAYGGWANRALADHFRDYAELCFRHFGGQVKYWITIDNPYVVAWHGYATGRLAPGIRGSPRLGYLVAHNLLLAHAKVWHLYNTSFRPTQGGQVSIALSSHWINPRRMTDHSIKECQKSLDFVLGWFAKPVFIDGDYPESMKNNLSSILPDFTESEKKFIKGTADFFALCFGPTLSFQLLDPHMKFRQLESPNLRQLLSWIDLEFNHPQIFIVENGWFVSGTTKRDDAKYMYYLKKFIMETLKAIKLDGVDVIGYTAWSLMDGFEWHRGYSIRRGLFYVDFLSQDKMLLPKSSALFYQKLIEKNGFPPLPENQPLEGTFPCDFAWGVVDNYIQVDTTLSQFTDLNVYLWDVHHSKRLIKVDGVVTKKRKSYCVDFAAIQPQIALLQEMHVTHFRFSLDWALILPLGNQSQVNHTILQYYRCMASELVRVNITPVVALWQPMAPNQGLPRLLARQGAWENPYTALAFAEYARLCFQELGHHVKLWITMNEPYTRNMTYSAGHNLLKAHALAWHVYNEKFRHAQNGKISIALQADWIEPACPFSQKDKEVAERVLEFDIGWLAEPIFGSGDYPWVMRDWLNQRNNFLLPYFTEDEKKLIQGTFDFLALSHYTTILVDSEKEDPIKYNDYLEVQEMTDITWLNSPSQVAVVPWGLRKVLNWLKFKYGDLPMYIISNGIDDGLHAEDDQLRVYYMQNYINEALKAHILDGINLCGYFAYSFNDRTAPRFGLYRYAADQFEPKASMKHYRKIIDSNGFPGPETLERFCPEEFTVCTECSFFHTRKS
Put plainly: size-exclusion chromatography of the mixture, with Coomassie-stained SDS-PAGE of the eluted peak fractions [left]. Background: In gel filtration, larger molecules generally elute earlier.

B1: FGF23^WT (human FGF23 Y25 to S205 with R176Q/R179Q, protease-resistant minimal protein) (ligand)
chain: YPNASPLLGSSWGGLIHLYTATARNSYHLQIHKNGHVDGAPHQTIYSALMIRSEDAGFVVITGVMSRRYLCMDFRGNIFGSHYFDPENCRFQHQTLENGYDVYHSPQYHFLVSLGRAKRAFLPGMNPPPYSQFLSRRNEIPLIHFNTPIPRQHTQSAEDDSERDPLNVLKPRARMTPAPAS
notes: also called wild-type FGF23; minimal FGF23
As to B1, the binding result in assay [1] and in assay [2] was “binds” throughout.
